Entries after “also recorded” stand apart in the source; their conditions may differ. Like-named read-outs stand apart in the source and are kept apart here.
Columns and labels:
[1] = tested on: CCR5+ metastatic Triple Negative Breast Cancer; test: Phase Ib/II study, CTC/EMT/CAML assessment in blood (LifeTrac Assay); format: in vivo, human
Text: Each treatment cycle consisted of 21 days. […] This treatment regimen was used for all subjects enrolled in the mTNBC study, unless otherwise indicated.
The blood sample for circulating tumor cells (CTC) and cancer associated macrophage-like cells (CAMLs) assessment was collected at baseline and subsequently at Day 1 of each treatment cycle to assess changes in CTCs and CAMLs after treatment and to perform correlative analysis between CCR5 expression and PD-L1 expression.
Creatv Microtech has developed a size based technology and detection methodology (LifeTrac Assay) that enables the collection and characterization of all cancer associated cells in the blood i.e., CTCs, epithelial mesenchymal transition cells (EMTs) and CAMLs.[Adams Cytometry 2015, Adams RSC 2014]. The CellSieve™ filtration platform is used to capture CAMLs and CTCs.

[2] = molecular target: T1, CCR5 (Homo sapiens, UniProt P51681); test: CCL5 induced calcium responses in MDA-MB-231-CCR5 cells (Fluo-4, living cell image); format: cell-based; parameters: expressed in transfected cells; host or cells: MDA-MB-231 human breast cancer cell line (MDA-MB-231-CCR5)
T1 sequence (P51681 whole entry): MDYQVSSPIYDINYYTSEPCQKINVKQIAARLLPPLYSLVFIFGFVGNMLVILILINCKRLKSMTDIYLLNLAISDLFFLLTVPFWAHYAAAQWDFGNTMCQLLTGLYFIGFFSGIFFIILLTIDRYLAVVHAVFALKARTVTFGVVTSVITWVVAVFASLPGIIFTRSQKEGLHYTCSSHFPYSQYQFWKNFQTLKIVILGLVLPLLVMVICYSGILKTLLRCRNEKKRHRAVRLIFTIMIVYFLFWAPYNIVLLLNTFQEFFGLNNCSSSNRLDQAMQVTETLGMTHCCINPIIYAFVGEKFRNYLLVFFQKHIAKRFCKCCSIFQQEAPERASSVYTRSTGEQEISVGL
Text: FIG. 2A, FIG. 2B, FIG. 2C, and FIG. 2D. […] CCR5 activation induces calcium flux (Mueller et al., 2002; Petkovic et al., 2004). […] Fluo-4 was used as calcium concentration indicator. The CCR5 antagonist, vicriviroc, was used as positive control (FIGS. 2A and 2D).

[3] = tested on: HIV-1; conditions: at concentrations that do not affect CCR5 chemokine receptor activity in vitro; cited from earlier work
[4] = human, in vivo; cited from earlier work
[5] = molecular target: T1, CCR5; parameters: endogenous in cells; host or cells: CD4+ T cells; conditions: cited from earlier work
[6] = tested on: MDA-MB-231 cells; test: MTT assay, leronlimab combined with doxorubicin; format: cell-based, human; conditions: 10 mg/ml leronlimab with different dose of doxorubicin, 3 days
Procedure: FIG. 5A and FIG. 5B. […] The MTT assay was used to determine the relative cell number (FIG. 5A). The cells treated with maraviroc ([…]) combining with different dose of doxorubicin were used as positive control (FIG. 5B). Data are shown as mean±SEM for N=8.

[7] = tested on: breast cancer tumor model; test: Breast cancer tumor model; format: in vivo
Text: C-C Chemokine receptor type-5 (CCR5) is selectively reexpressed on the surface of tumor cells during the dedifferentiation and transformation process (velasco-velazquez-2012).
Another cancer hallmark that CCR5 presents a potential role is the DNA repair pathways. This cancer characteristic attenuates apoptosis and contributes to chemotherapy resistance and tumor cells immortality. Studies have correlated the altered expression of C-C Chemokine Ligand type-5 (CCL5) with disease progression in patients with breast cancer [Luboshits, 1999] [Niwa, 2001] [Zhang, 2009].

[8] = tested on: MDA-MB-231 cells stable transfected with Luc2-GFP; test: Mouse lung metastasis model, bioluminescence imaging; format: in vivo; conditions: mice, tail-vein injection, treated one day before injection
Procedure: FIG. 4A and FIG. 4B. Leronlimab block breast cancer metastasis in mice. […] MDA-MB-231 cells stable transfected with Luc2-GFP was injected into the mice through tail-vein. The mice in each group were treated one day before injection. The metastasis tumor formed in the lung was determined by bioluminescence imaging. […] The quantitative analysis of tumor size in each group was shown in (FIG. 4B). The size of tumors defined by photon flux (x10^8 p/sec/cm^2/sr).

[9] = Subject 706-001, C1D1, with carboplatin
[10] = Subject 706-001, C2D1, with carboplatin
[11] = Subject 706-001, C3D1, with carboplatin
[12] = Subject 706-001, C4D1, with carboplatin
[13] = Subject 706-001, C5D1, with carboplatin
[14] = Subject 706-001, C6D1, with carboplatin
[15] = second subject, after two weeks of treatment, with carboplatin

B1: leronlimab: humanized monoclonal antibody to CCR5; humanized version of the murine mAb PA14 (antibody, chains of the INN, looked up, V domains shown)
VH: EVQLVESGGGLVKPGGSLRLSCAASGYTFSNYWIGWVRQAPGKGLEWIGDIYPGGNYIRNNEKFKDKTTLSADTSKNTAYLQMNSLKTEDTAVYYCGSSFGSNYVFAWFTYWGQGTLVTVSS
VL: DIVMTQSPLSLPVTPGEPASISCRSSQRLLSSYGHTYLHWYLQKPGQSPQLLIYEVSNRFSGVPDRFSGSGSGTDFTLKISRVEAEDVGVYYCSQSTHVPLTFGQGTKVEIK
In the case of B1, the CAML-Total [1, 9] is reported as 1, the CTC-Total [1, 9] is reported as 0 and the EMT-Total [1, 9] is reported as 2. The “Largest CAML, PD-L1” value [1, 9] was 47 μm, the “Number of Apoptotic CTC, PD-L1” value [1, 9] was 0 and the “Number of Apoptotic CTCs, CCR5” value [1, 9] was 0. The “Number of CAMLs, CCR5” value [1, 9] was 0, the “Number of CAMLs, PD-L1” value [1, 9] was 1 and the “Number of CTCs, CCR5” value [1, 9] was 0. The “Number of CTCs, PD-L1” value [1, 9] was 0, the “Number of EMTs, CCR5” value [1, 9] was 1 and the “Number of EMTs, PD-L1” value [1, 9] was 1. The CAML-Total [1, 10] was 3, the CTC-Total [1, 10] was 0 and the EMT-Total [1, 10] was 0. The “Largest CAML, CCR5” value [1, 10] was 27 μm, the “Largest CAML, PD-L1” value [1, 10] was 69 μm and the “Number of Apoptotic CTC, PD-L1” value [1, 10] was 0. The “Number of Apoptotic CTCs, CCR5” value [1, 10] was 0, the “Number of CAMLs, CCR5” value [1, 10] was 1 and the “Number of CAMLs, PD-L1” value [1, 10] was 2. The “Number of CTCs, CCR5” value [1, 10] was 0, the “Number of CTCs, PD-L1” value [1, 10] was 0 and the “Number of EMTs, CCR5” value [1, 10] was 0. The “Number of EMTs, PD-L1” value [1, 10] was 0, the “Largest CAML, CCR5” value [1, 11] was 39 μm and the “Largest CAML, PD-L1” value [1, 11] was 30 μm. For the same molecule, the “Number of Apoptotic CTC, PD-L1” value [1, 11] was 0, the “Number of Apoptotic CTCs, CCR5” value [1, 11] was 0 and the “Number of CAMLs, CCR5” value [1, 11] was 3. The “Number of CAMLs, PD-L1” value [1, 11] was 1, the “Number of CTCs, CCR5” value [1, 11] was 0 and the “Number of CTCs, PD-L1” value [1, 11] was 0. For the same molecule, the “Number of EMTs, CCR5” value [1, 11] was 0, the “Number of EMTs, PD-L1” value [1, 11] was 0 and the CAML-Total [1, 12] was 1. For the same molecule, the CTC-Total [1, 12] was 0, the EMT-Total [1, 12] was 0 and the “Largest CAML, CCR5” value [1, 12] was 0 μm. For the same molecule, the “Largest CAML, PD-L1” value [1, 12] was 31 μm, the “Number of Apoptotic CTC, PD-L1” value [1, 12] was 0 and the “Number of Apoptotic CTCs, CCR5” value [1, 12] was 0. The “Number of CAMLs, CCR5” value [1, 12] was 0, the “Number of CAMLs, PD-L1” value [1, 12] was 1 and the “Number of CTCs, CCR5” value [1, 12] was 0. The “Number of CTCs, PD-L1” value [1, 12] was 0, the “Number of EMTs, CCR5” value [1, 12] was 0 and the “Number of EMTs, PD-L1” value [1, 12] was 0. The CAML-Total [1, 13] was 3, the CTC-Total [1, 13] was 0 and the EMT-Total [1, 13] was 0. For the same molecule, the “Largest CAML, CCR5” value [1, 13] was 33 μm, the “Largest CAML, PD-L1” value [1, 13] was 56 μm and the “Number of Apoptotic CTC, PD-L1” value [1, 13] was 0. For the same molecule, the “Number of Apoptotic CTCs, CCR5” value [1, 13] was 0, the “Number of CAMLs, CCR5” value [1, 13] was 1 and the “Number of CAMLs, PD-L1” value [1, 13] was 2. The “Number of CTCs, CCR5” value [1, 13] was 0, the “Number of CTCs, PD-L1” value [1, 13] was 0 and the “Number of EMTs, CCR5” value [1, 13] was 0. The “Number of EMTs, PD-L1” value [1, 13] was 0, the CAML-Total [1, 14] was 8 and the CTC-Total [1, 14] was 0. For the same molecule, the EMT-Total [1, 14] was 0, the “CCR5 expression on cancer-associated cells” value ([1]; first subject, after approximately 11 weeks of treatment) was “large reductions in CCR5 expression” and the “circulating tumor cells (CTC) or putative metastatic tumor cells in the peripheral blood” value ([1]; first subject, following 16 weeks of treatment) was “no detectable circulating tumor cells (CTC) or putative metastatic tumor cells”. The “levels of CTC” value [1, 15] was “no detectable levels of CTC”, the “reduction in EMT cells” value [1, 15] was 70% and the CAML count ([1]; second subject, following at least two weeks of treatment, initial count 45) was 30. The “decrease of total CTC+EMT counts” value ([1]; third subject, first two weeks of treatment, with carboplatin) was 75%, the “effect on CCL5 induced calcium responses” value [2] was “can block CCL5 induced calcium responses” and the “calcium response at calcium peak induce by CCL5” value ([2]; Fluo-4, control cells 1.23±0.10, P<0.001) was 0.54±0.13. For the same molecule, the “effect on CCL5 induced calcium responses” value ([2]; listed as Leronlimab) was “abrogated CCL5 induced Ca^+2 flux”, the “inhibition of HIV-1 entry and replication” value [3] was “potently inhibits HIV-1 entry and replication” and the adverse events [4] was “without significant adverse events reported”. For the same molecule, the “effect on cAMP levels” value ([5]; added to CD4+ T cells alone) was “does not affect cAMP levels”, the “effect on cAMP levels” value ([5]; administered with CCL5) was “diminishes the effect of CCL5 on cAMP levels” and the “cell death induced by doxorubicin” value [6] was “augmented cell killing by DNA damage inducing agents including Doxorubicin; also recorded: enhances the cell death induced by doxorubicin”. The tumor volume [7] was “significant reduction in tumor volume” and the “breast cancer tumor metastasis to the lung” value [8] was “blocks human breast cancer xenograft metastasis in mice; also recorded: dramatically decreased breast cancer tumor metastasis to the lung”.

Source: patent US20220162327A1, “ANTI-CCR5 AGENTS AND METHODS OF TREATMENT THAT BLOCK CANCER METASTASIS OR ENHANCE CELL DEATH INDUCED BY DNA DAMAGING CHEMOTHERAPY” (CytoDyn Inc., priority 2019, published 2022)
